Laboratory results as given in patent publication US6015562, “Targeted forms of methyltrithio antitumor agents” (American Cyanamid Company, dated 2000).

Columns and labels:
[1] = molecular target: T1, polymorphic epithelial mucin (PEM) (human, UniProt P15941); assay: direct binding ELISA, PEM-coated microwell plates, culture supernatant
[2] = molecular target: T1, polymorphic epithelial mucin (PEM); assay: order of binding activity from all the direct binding ELISA assays on PEM

Row | binding result [1] | binding result [2] | Binder
1 | binds |  | cLgH2 (chimeric light chain with CDR-grafted heavy chain gH2; plasmids pAL52 and pAL41) (antibody, V domains shown) VH: QIQLVQSGAEVKKPGSSVKVSCKASGYTFTDYYINWMRQAPGQGLEWIGWIDPGSGNTKYNEKFKGRATLTVDTSTNTAYMELSSLRSEDTAFYFCAREKTTYYYAMDYWGQGTLVTVSS VL: DIVMTQAAPSVPVTPGESLSISCRSSKSLLHSNGDTFLYWFLQRPGQSPQLLIYRMSNLASGVPDRFSGSGSGTAFTLRVSRVEAEDVGVYYCMQHLEYPFTFGAGTKLELKR
2 |  | binds | gL1cH (CDR-grafted light chain gL1 with chimeric heavy chain; plasmids pAL47 and pHMC33) (antibody, V domains shown) VH: QIQLQQSGPELVKPGASVKISCKASGYTFTDYYINWMKQKPGQGLEWIGWIDPGSGNTKYNEKFKGKATLTVDTSSSTAYMQLSSLTSEDTAVYFCAREKTTYYYAMDYWGQGTSVTVS VL: DIQMTQSPSTLSASVGDRVTITCRSSKSLLHSNGDTFLYWFQQKPGKAPKLLMYRMSNLASGVPSRFSGSGSGTEFTLTISSLQPDDFATYYCMQHLEYPFTFGQGTKVEVKR
